Publication PMC7007005
Blank lines part the entries; values can stand above or below the molecule they belong to.

Legend:
[1] = biological target: FMN-containing OdAu1aLOV (isolated LOV domain of Ochromonas danica Aureochrome1a) (Ochromonas danica); test: SEC; concentration-dependent analytical gel filtration of lit-state OdAu1aLOV, 200 to 10 μM (Figure S6); column illuminated with 450 nm LEDs
[2] = biological target: FMN-containing OdAu1aLOV (isolated LOV domain of Ochromonas danica Aureochrome1a) (Ochromonas danica); test: SEC; analytical gel filtration of OdAu1aLOV in the lit state (column illuminated with 450 nm LEDs); HEPES 20 mM pH 7.4, NaCl 100 mM, MgCl2 10 mM, TCEP 0.3 mM; 100 μM protein
[3] = biological target: T1, OdAu1abZIPLOV (Aureochrome1a bZIP-LOV), 5dFMN cofactor (Ochromonas danica, UniProt C5NSW6); test: EMSA; dark state; single shifted band, no supershift; DNA binding buffer: 20 mM HEPES pH 7.4, 100 mM NaCl, 10 mM MgCl2, 1 mM TCEP; EMSA: 20 nM DNA, 10% glycerol, BSA, poly-dI-dC, at 4 C; SEC samples incubated 30 mi
[4] = biological target: T2, OdAu1abZIPLOV (Aureochrome1a bZIP-LOV), FMN cofactor (Ochromonas danica, UniProt C5NSW6); test: EMSA; lit state (450 nm); supershifted band, putative 2:1 complex; DNA binding buffer: 20 mM HEPES pH 7.4, 100 mM NaCl, 10 mM MgCl2, 1 mM TCEP; EMSA: 20 nM DNA, 10% glycerol, BSA, poly-dI-dC, at 4 C; SEC samples incubated 30 mi
[5] = biological target: T2, OdAu1abZIPLOV (Aureochrome1a bZIP-LOV), …; test: size-exclusion chromatography; dark state, 50 uM protein; DNA binding buffer: 20 mM HEPES pH 7.4, 100 mM NaCl, 10 mM MgCl2, 1 mM TCEP; EMSA: 20 nM DNA, 10% glycerol, BSA, poly-dI-dC, at 4 C; SEC samples incubated 30 mi
[6] = biological target: T1, OdAu1abZIPLOV (Aureochrome1a bZIP-LOV), …; test: as above
[7] = biological target: T3, FMN-containing OdAu1a_(bZIPLOV) (bZIP and LOV domains of Ochromonas danica Aureochrome1a) (Ochromonas danica); test: SEC; analytical gel filtration of OdAu1a_(bZIPLOV) in the dark state (Figures S7-S9)
[8] = biological target: T3, FMN-containing OdAu1a_(bZIPLOV) (bZIP …); test: SEC; analytical gel filtration of OdAu1a_(bZIPLOV) in the lit state (450 nm LEDs; Figures S7-S9)
[9] = biological target: T4, 5dFMN-containing OdAu1a_(bZIPLOV) (bZIP and LOV domains of Ochromonas danica Aureochrome1a refolded with 5-deazaflavin mononucleotide) (Ochromonas danica); test: SEC; analytical gel filtration of OdAu1a_(bZIPLOV) in the dark state (Figures S7-S9)
[10] = biological target: T4, 5dFMN-containing OdAu1a_(bZIPLOV) (bZIP …); test: SEC; analytical gel filtration of OdAu1a_(bZIPLOV) in the lit state (450 nm LEDs; Figures S7-S9)

B1: OdAu1a recognition DNA, TAMRA (dsDNA)
DNA 1: TGTAGCGTCTGACGTGGTTCCCAC
DNA 2: GTGGGAACCACGTCAGACGCTACA
- binding result [3]: binds
- binding result [4]: binds

B2: OdAu1a recognition DNA, 24 bp, unlabelled (dsDNA)
DNA 1: TGTAGCGTCTGACGTGGTTCCCAC
DNA 2: GTGGGAACCACGTCAGACGCTACA
- binding result [5]: binds
- binding result [6]: binds

B4: 5dFMN-containing OdAu1a_(bZIPLOV) (bZIP and LOV domains of Ochromonas danica Aureochrome1a refolded with 5-deazaflavin mononucleotide) (domain or fragment)
chain: EEQKIERRERNREHAKRSRVRKKFLLESLQHSVRALEEENEKLRNAIRENLQGEAEQLLTRCSCGGPSVIASDPNTATRTLDDPDYSLVKALQTAQQNFVISDPSIPDNPIVYASQGFLTLTGYALSEVLGRNCRFLQGPETDPKAVEKVRKGLERGEDTTVVLLNYRKDGSTFWNQLFIAALRDGEGNVVNYLGVQCKVSEDYAKAFLKNEENEK
modifications: not checked
- stoichiometry N [9]: 2
- stoichiometry N [10]: 2

Results, then the molecule that gave them:

- stoichiometry N [1]: 2
- stoichiometry N [2]: 2
Molecule: FMN-containing OdAu1aLOV (isolated LOV domain of Ochromonas danica Aureochrome1a) (domain or fragment)

- stoichiometry N [7]: 2
- stoichiometry N [8]: 2
B3: FMN-containing OdAu1a_(bZIPLOV) (bZIP and LOV domains of Ochromonas danica Aureochrome1a) (domain or fragment)
chain: B4 chain
modifications: not checked
